In PMC8519567:
Where two headings read alike, the source gives them in different places.

Legend:
[1] = test system: SMARCAD1 (dephosphorylated with CIP) (Homo sapiens); assay: FP
[2] = target: histones: H3-H4 (Alexa Fluor 488–H4) and H2A-H2B (Atto647N H2B) mixed at 10 nM (human); assay: FRET or BRET
[3] = target: histones: H3-H4 (Alexa Fluor 488–H4) and H2A-H2B (Atto647N H2B) mixed at 10 nM (human); assay: FRET or BRET; remark: listed apart in the source
[4] = target: 7 N11 nucleosome labeled at H4 E63C with Alexa Fluor 488 (human) (UniProt P04908); assay: fluorescence polarisation
[5] = target: refolded histones H3-H4 labeled with Alexa Fluor 488 on H4 (human) (UniProt P68431); assay: fluorescence polarisation

## 7N11 nucleosome (165 bp), Alexa Fluor 488 at H4 E63C
[1]
  Kd: 90 nM

## 147-bp 601 DNA
[1]
  Kd: 80 nM

## TLH3 nucleosome (tailless H3)
[1]; H3 N-terminal tail deleted
  Kd: 330 nM

## TLH4 nucleosome (tailless H4)
[1]; H4 N-terminal tail deleted
  Kd: 110 nM

## dephosphorylated SMARCAD1 (from UniProt Q9H4L7 1-1026) (enzyme)
[2]
  Kd: 2.1 nM
[3]
  Kd: 1.3 nM
[4]
  Kd: 90 nM
[5]
  Kd: 4 nM
